Test results as given in publication PMC3814384, “YoeB–ribosome structure: a canonical RNase that requires the ribosome for its specific activity” (Nucleic Acids Research, 2013).

Target: the molecule itself
Assay: crystal structure; T. thermophilus 70S ribosome 4.4 uM with mRNA MOO4b (2'-O-methylated A-site codon) and tRNAfMet, YoeB added to 44 uM, buffer G (5 mM HEPES pH 7.5, 50 mM KCl, 10 mM NH4Cl, 10 mM Mg-acetate, 6 mM 2-mercaptoethanol); pre-cleavage state, 3.35 A

B1: Escherichia coli YoeB (enzyme, UniProt P69348 1-84, looked up)
chain: MKLIWSEESWDDYLYWQETDKRIVKKINELIKDTRRTPFEGKGKPEPLKHNLSGFWSRRITEEHRLVYAVTDDSLLIAACRYHY
notes: In the crystal two copies (monomers A and B) sit on the ribosomal A site as a homodimer; also called YeoB; monomer A; source: E. coli BL21(DE3), co-expressed with His-tagged YefM
**Q.** For B1, which “stoichiometry N” value is on record?
**A.** The value was 2.
